Data published in IntAct's records for PubMed 11641419.

B1: Prolactin-releasing peptide receptor (Homo sapiens), P49683 (parent)
chain: MASSTTRGPRVSDLFSGLPPAVTTPANQSAEASAGNGSVAGADAPAVTPFQSLQLVHQLKGLIVLLYSVVVVVGLVGNCLLVLVIARVRRLHNVTNFLIGNLALSDVLMCTACVPLTLAYAFEPRGWVFGGGLCHLVFFLQPVTVYVSVFTLTTIAVDRYVVLVHPLRRRISLRLSAYAVLAIWALSAVLALPAAVHTYHVELKPHDVRLCEEFWGSQERQRQLYAWGLLLVTYLLPLLVILLSYVRVSVKLRNRVVPGCVTQSQADWDRARRRRTFCLLVVIVVVFAVCWLPLHVFNLLRDLDPHAIDPYAFGLVQLLCHWLAMSSACYNPFIYAWLHDSFREELRKLLVAWPRKIAPHGQNMTVSVVI

Variants of: B1
Conditions: with grip1_human GRIP1, Q9Y3R0
grip1_human GRIP1, Q9Y3R0, sequence (Q9Y3R0 whole entry): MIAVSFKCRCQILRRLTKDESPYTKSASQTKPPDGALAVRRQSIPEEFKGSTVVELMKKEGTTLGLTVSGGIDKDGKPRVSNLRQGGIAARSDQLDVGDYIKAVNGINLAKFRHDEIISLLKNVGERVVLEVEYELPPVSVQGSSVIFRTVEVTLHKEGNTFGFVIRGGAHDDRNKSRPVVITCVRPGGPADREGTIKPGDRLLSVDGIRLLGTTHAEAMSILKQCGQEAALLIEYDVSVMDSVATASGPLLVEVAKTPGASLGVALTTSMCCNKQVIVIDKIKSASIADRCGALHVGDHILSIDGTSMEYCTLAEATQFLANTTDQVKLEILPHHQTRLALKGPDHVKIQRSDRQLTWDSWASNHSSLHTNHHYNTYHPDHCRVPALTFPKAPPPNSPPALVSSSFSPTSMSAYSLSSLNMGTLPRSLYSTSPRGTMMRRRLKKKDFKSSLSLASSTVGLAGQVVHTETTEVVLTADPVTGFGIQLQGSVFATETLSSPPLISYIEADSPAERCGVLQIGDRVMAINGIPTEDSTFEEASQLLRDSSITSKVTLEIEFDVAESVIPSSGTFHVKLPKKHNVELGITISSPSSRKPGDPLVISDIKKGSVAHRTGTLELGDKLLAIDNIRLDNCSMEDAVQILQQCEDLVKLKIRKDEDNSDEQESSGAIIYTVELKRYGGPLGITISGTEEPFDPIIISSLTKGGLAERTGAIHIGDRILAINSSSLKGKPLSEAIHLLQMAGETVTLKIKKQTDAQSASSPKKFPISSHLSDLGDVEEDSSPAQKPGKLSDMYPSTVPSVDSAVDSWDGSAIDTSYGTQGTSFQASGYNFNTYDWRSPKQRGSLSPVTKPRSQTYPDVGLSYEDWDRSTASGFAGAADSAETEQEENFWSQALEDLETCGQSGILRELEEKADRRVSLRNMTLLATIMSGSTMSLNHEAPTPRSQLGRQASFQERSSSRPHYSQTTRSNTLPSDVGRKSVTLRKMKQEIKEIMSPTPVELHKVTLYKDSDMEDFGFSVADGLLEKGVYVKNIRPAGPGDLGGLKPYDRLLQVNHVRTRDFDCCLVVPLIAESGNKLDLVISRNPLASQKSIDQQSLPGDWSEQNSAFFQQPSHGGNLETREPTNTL

Effect of a mutation on the interaction, disrupting interaction:
MASSTTRGPRVSDLFSGLPPAVTTPANQSAEASAGNGSVAGADAPAVTPFQSLQLVHQLKGLIVLLYSVVVVVGLVGNCLLVLVIARVRRLHNVTNFLIGNLALSDVLMCTACVPLTLAYAFEPRGWVFGGGLCHLVFFLQPVTVYVSVFTLTTIAVDRYVVLVHPLRRRISLRLSAYAVLAIWALSAVLALPAAVHTYHVELKPHDVRLCEEFWGSQERQRQLYAWGLLLVTYLLPLLVILLSYVRVSVKLRNRVVPGCVTQSQADWDRARRRRTFCLLVVIVVVFAVCWLPLHVFNLLRDLDPHAIDPYAFGLVQLLCHWLAMSSACYNPFIYAWLHDSFREELRKLLVAWPRKIAPHGQNMTVAVVI [S367A]
MASSTTRGPRVSDLFSGLPPAVTTPANQSAEASAGNGSVAGADAPAVTPFQSLQLVHQLKGLIVLLYSVVVVVGLVGNCLLVLVIARVRRLHNVTNFLIGNLALSDVLMCTACVPLTLAYAFEPRGWVFGGGLCHLVFFLQPVTVYVSVFTLTTIAVDRYVVLVHPLRRRISLRLSAYAVLAIWALSAVLALPAAVHTYHVELKPHDVRLCEEFWGSQERQRQLYAWGLLLVTYLLPLLVILLSYVRVSVKLRNRVVPGCVTQSQADWDRARRRRTFCLLVVIVVVFAVCWLPLHVFNLLRDLDPHAIDPYAFGLVQLLCHWLAMSSACYNPFIYAWLHDSFREELRKLLVAWPRKIAPHGQNMTVSVVA [I370A]
MASSTTRGPRVSDLFSGLPPAVTTPANQSAEASAGNGSVAGADAPAVTPFQSLQLVHQLKGLIVLLYSVVVVVGLVGNCLLVLVIARVRRLHNVTNFLIGNLALSDVLMCTACVPLTLAYAFEPRGWVFGGGLCHLVFFLQPVTVYVSVFTLTTIAVDRYVVLVHPLRRRISLRLSAYAVLAIWALSAVLALPAAVHTYHVELKPHDVRLCEEFWGSQERQRQLYAWGLLLVTYLLPLLVILLSYVRVSVKLRNRVVPGCVTQSQADWDRARRRRTFCLLVVIVVVFAVCWLPLHVFNLLRDLDPHAIDPYAFGLVQLLCHWLAMSSACYNPFIYAWLHDSFREELRKLLVAWPRKIAPHGQNMTVSAVI [V368A]
